# According to publication PMC11847629:
# Tests used:
# [1] = GATA3 Western blot, JEG3; conditions: control: untreated
# [2] = CHX chase, Western blot, JEG3; conditions: control: untreated (respective controls)
# [3] = Hypoxic rise of GATA3 protein, Western blot, JEG3; conditions: glycan lost; control: WT-G plasmid, 2% vs 21% O2
# [4] = CHX chase, Western blot, JEG3, normoxia; conditions: glycan lost; control: WT-G plasmid
# [5] = GATA3 Western blot, JEG3; mRNA equal; conditions: glycan lost; control: WT-G plasmid
# [6] = CHX chase, Western blot, JEG3, hypoxia; conditions: glycan lost; control: WT-G plasmid under 2% O2
# [7] = CHX chase, Western blot, primary human trophoblasts; conditions: glycan gained; control: untreated (respective controls)
# [8] = GATA3 Western blot, primary human trophoblasts; conditions: glycan gained; control: DMSO
substance,measurement,setting,value
GATA3 (GATA binding protein 3): Ac45S (OGT inhibitor),expression_or_secretion,[1]; glycan lost,decreases
same,degradation_or_half_life,[2]; glycan lost,decreases
GATA3 (GATA binding protein 3): T322A-G,expression_or_secretion,[3],abolishes
same,degradation_or_half_life,[4],decreases
same,"expression_or_secretion, fold_change",[5],decreases
same,degradation_or_half_life,[6],changes
GATA3 (GATA binding protein 3): TMG (OGA inhibitor),degradation_or_half_life,[7],increases
same,expression_or_secretion,[8],increases
same,expression_or_secretion,[1]; glycan gained,increases
same,degradation_or_half_life,[2]; glycan gained,increases
